Measurements: patent publication US20150183877A1 (Eli Lilly, published 2015)

Biological target: T1, hHER-2-Histag (Sino Biologics) (human, UniProt P04626 23-652)
T1 construct: Bought reagent; not shown: His tag
Assay: EGFR/HER-2 sandwich ELISA: hEGFR-Fc coat, test compound, detection with hHER-2-Histag and anti-His-HRP
Method: (§1) Specifically, clear 96-well round bottom high binding microtiter plates (Greiner) are coated overnight at 2-8° C. with 50 μL/well 1 μg/mL hEGFR-Fc (Cat. #344-ER-050, R&D systems) in a 50 mM Na₂CO₃ pH 9.4 buffer. The plate is washed 4× times with PBST and blocked with 100 μL/well casein buffer (Pierce) for 1 hr at 37° C. The plate is then washed 4× times with PBST and test compounds are added at 50 μL/well and 30 μg/mL […] and serially diluted 1:2 down the plate. The test compounds are incubated on the plate for 1 hr at 37° C. The plate is washed 4× times with PBST and 50 μL/well 0.2 μg/mL hHER-2-Histag (Sino Biologics) is added for 1 hr at 37° C. The plate is then washed 4× times with PBST followed by the addition of a 50 μL/well secondary anti-Histag-HRP antibody (PENTA-His-HRP, Qiagen) diluted 1:1000 in PBST. The secondary antibody is incubated for 1 hr at 37° C. The plate is then washed 4× times with PBST and 100 μL/well 1-component 3,3′,5,5′-Tetramethylbenzidine (TMB) substrate is added (KPL laboratories). After approximately 10 minutes, 100 μL/well 1% H₃PO₄ (in H₂O) is added to quench the reaction. Absorbance (450 nm) of every well in the plate is read using a SpectraMax UV plate reader (Molecular Devices).

Binder | binding result
mTCR-G1(-) (antibody, human IgG1, Matuzumab Fv in IgG-TCR format (anti-EGFR IgG-TCR control)) heavy: not shown light: DIQMTQSPSSLSASVGDRVTITCSASSSVTYMYWYQQKPGKAPKLLIYDTSNLASGVPSRFSGSGSGTDYTFTISSLQPEDIATYYCQQWSSHIFTFGQGTKVEIKKVFPPEVAVFEPSEAEISHTQKATLVCLATGFFPDHVELSWWVNGKEVHSGVSTDPQPLKEQPALNDSRYCLSSRLRVSATFWQNPRNHFRCQVQFYGLSENDEWTQDRAKPVTQIVSAEAWGRADC | no binding (tested: 30 µg/mL (20 nM), serially diluted 1:2)

Biological target: T2, hEGFR-Fc (Cat. #344-ER-050, R&D systems) (human, UniProt P00533 25-645)
T2 construct: Bought reagent; not shown: Fc part of the bought fusion
Assay: EGFR/HER-2 sandwich ELISA: hEGFR-Fc coat, compound titrated, detection with 0.2 µg/mL hHER-2-Histag and anti-His-HRP
Method: as §1

EC50 [nM] | Binder
< 1 | C-mTCRpG1 (bispecific antibody, human IgG1, kappa, Anti-EGFR (matuzumab TCR-Fab) / anti-HER-2 (pertuzumab IgG-Fab) IgG-(Fab)2, Format 1) heavy: not shown light 1: not shown light 2: DIQMTQSPSSLSASVGDRVTITCSASSSVTYMYWYQQKPGKAPKLLIYDTSNLASGVPSRFSGSGSGTDYTFTISSLQPEDIATYYCQQWSSHIFTFGQGTKVEIKKVFPPEVAVFEPSEAEISHTQKATLVCLATGFFPDHVELSWWVNGKEVHSGVSTDPQPLKEQPALNDSRYCLSSRLRVSATFWQNPRNHFRCQVQFYGLSENDEWTQDRAKPVTQIVSAEAWGRADC
2 | N-mTCRpG1 (bispecific antibody, human IgG1, kappa, Anti-EGFR (matuzumab TCR-Fab) / anti-HER-2 (pertuzumab IgG) IgG-(Fab)2, Format 3; also called N-mTCRpG1ds) heavy: not shown light 1: not shown light 2: DIQMTQSPSSLSASVGDRVTITCSASSSVTYMYWYQQKPGKAPKLLIYDTSNLASGVPSRFSGSGSGTDYTFTISSLQPEDIATYYCQQWSSHIFTFGQGTKVEIKKVFPPEVAVFEPSEAEISHTQKATLVCLATGFFPDHVELSWWVNGKEVHSGVSTDPQPLKEQPALNDSRYCLSSRLRVSATFWQNPRNHFRCQVQFYGLSENDEWTQDRAKPVTQIVSAEAWGRADC

Biological target: T3, IL-17 (SEQ ID NO:80), hIL-17 with C-terminal FlagHis tag (human)
T3 construct: The entry holds the IL-17 part and the Flag-His tag
Assay: SPR (Biacore 3000): antibody captured on anti-human Fc, saturating IL-17 injected; RU of IL-17 per RU captured, relative to WT IgG
Method: The extent of HC/LC assembly is assessed using a kinetic Biacore experiment. Briefly, kinetic surface Plasmon resonance (SPR) experiments are performed using a Biacore 3000 (GE Healthcare). IgG-TCR proteins are captured onto CM5 sensorchip surfaces with an immobilized goat anti-human IgG-Fc polyclonal antibody (Jackson ImmunoResearch, Cat. #109-005-098). The goat polyclonal antibody immobilization is achieved by injecting the protein (at 50 μg/mL, pH 5) over an NHS/EDC activated sensorchip surface followed by blocking with ethanolamine (as described by manufacturer). The IgG or IgG-TCRs are captured onto the anti-human Fc sensorchip surface by injecting 10 μL of protein at 0.1 and 0.5 mg/mL using a 2 […]. Flow rates are increased to 10 μL/min followed by secondary 30 μL injections of IL-17 (SEQ ID NO:80) at 10 and 50 nM. Following a 15 minute dissociation period, the flow rate is increased to 60 μL/min and sensorchip surfaces are regenerated using two consecutive 10 μL injections of 0.1 M glycine, pH 2.0.
The experiment measures the percent activity by relating the amount of captured IgG or IgG-TCR (based on resonance units) with the secondary response generated using a saturating level of IL-17. The percent activity of each IgG-TCR is calculated based on a comparison with the WT IgG: […]

T3 sequence (chain, as listed by the source limits assumed): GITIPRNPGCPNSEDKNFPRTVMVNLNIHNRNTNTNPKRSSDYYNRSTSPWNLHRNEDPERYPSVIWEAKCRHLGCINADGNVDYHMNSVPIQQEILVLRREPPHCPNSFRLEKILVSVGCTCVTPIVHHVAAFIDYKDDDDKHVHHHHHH

Activity by kinetic Biacore (percent activity relative to WT IgG) [%] | Binder
100 | anti-human IL-17 IgG4/κ antibody (antibody, Parent IgG4/kappa antibody of the IgG-TCR constructs TCR1-TCR8; also called Anti-IL17/IgG4; Anti-17 IgG4) heavy: not shown light: DIVMTQTPLSLSVTPGQPASISCRSSRSLVHSRGNTYLHWYLQKPGQSPQLLIYKVSNRFIGVPDRFSGSGSGTDFTLKISRVEAEDVGVYYCSQSTHLPFTFGQGTKLEIKRTVAAPSVFIFPPSDEQLKSGTASVVCLLNNFYPREAKVQWKVDNALQSGNSQESVTEQDSKDSTYSLSSTLTLSKADYEKHKVYACEVTHQGLSSPVTKSFNRGEC
35 | TCR2 (anti-IL-17 IgG-TCR, Cα for CH1, Cβ for CL) (antibody, IgG-TCR format with IgG4PAA hinge-Fc) heavy: not shown light: DIVMTQTPLSLSVTPGQPASISCRSSRSLVHSRGNTYLHWYLQKPGQSPQLLIYKVSNRFIGVPDRFSGSGSGTDFTLKISRVEAEDVGVYYCSQSTHLPFTFGQGTKLEIKEDLNKVFPPEVAVFEPSEAEISHTQKATLVCLATGFFPDHVELSWWVNGKEVHSGVSTDPQPLKEQPALNDSRYCLSSRLRVSATFWQNPRNHFRCQVQFYGLSENDEWTQDRAKPVTQIVSAEAWGRADCGFTS
48 | TCR8 (anti-IL-17 IgG-TCR, truncated Cα for CH1, Cβ for CL) (antibody, IgG-TCR format with IgG4PAA hinge-Fc) heavy: not shown light: DIVMTQTPLSLSVTPGQPASISCRSSRSLVHSRGNTYLHWYLQKPGQSPQLLIYKVSNRFIGVPDRFSGSGSGTDFTLKISRVEAEDVGVYYCSQSTHLPFTFGQGTKLEIKEDLNKVFPPEVAVFEPSEAEISHTQKATLVCLATGFFPDHVELSWWVNGKEVHSGVSTDPQPLKEQPALNDSRYCLSSRLRVSATFWQNPRNHFRCQVQFYGLSENDEWTQDRAKPVTQIVSAEAWGRADCGFTS
54 | TCR4 (anti-IL-17 IgG-TCR, truncated Cα for CH1, truncated Cβ for CL) (antibody, IgG-TCR format with IgG4PAA hinge-Fc) heavy: not shown light: DIVMTQTPLSLSVTPGQPASISCRSSRSLVHSRGNTYLHWYLQKPGQSPQLLIYKVSNRFIGVPDRFSGSGSGTDFTLKISRVEAEDVGVYYCSQSTHLPFTFGQGTKLEIKKVFPPEVAVFEPSEAEISHTQKATLVCLATGFFPDHVELSWWVNGKEVHSGVSTDPQPLKEQPALNDSRYCLSSRLRVSATFWQNPRNHFRCQVQFYGLSENDEWTQDRAKPVTQIVSAEAWGRADCGFTS
35 | TCR6 (anti-IL-17 IgG-TCR, Cα for CH1, truncated Cβ for CL) (antibody, IgG-TCR format with IgG4PAA hinge-Fc) heavy: not shown light: DIVMTQTPLSLSVTPGQPASISCRSSRSLVHSRGNTYLHWYLQKPGQSPQLLIYKVSNRFIGVPDRFSGSGSGTDFTLKISRVEAEDVGVYYCSQSTHLPFTFGQGTKLEIKKVFPPEVAVFEPSEAEISHTQKATLVCLATGFFPDHVELSWWVNGKEVHSGVSTDPQPLKEQPALNDSRYCLSSRLRVSATFWQNPRNHFRCQVQFYGLSENDEWTQDRAKPVTQIVSAEAWGRADCGFTS
17 | TCR3 (anti-IL-17 IgG-TCR, truncated Cβ for CH1, truncated Cα for CL) (antibody) heavy: not shown light: DIVMTQTPLSLSVTPGQPASISCRSSRSLVHSRGNTYLHWYLQKPGQSPQLLIYKVSNRFIGVPDRFSGSGSGTDFTLKISRVEAEDVGVYYCSQSTHLPFTFGQGTKLEIKIQNPDPAVYQLRDSKSSDKSVCLFTDFDSQTNVSQSKDSDVYITDKTVLDMRSMDFKSNSAVAWSNKSDFACANAFNNSIIPEDTFFPSPESSCDVK
